According to the nanobody polyreactivity screen of Harvey et al. (2022):

Experiment: yeast display, Sf9 membrane polyspecificity reagent, FACS + sequencing; frameworks hold sequencing errors
Procedure, shortened: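 Nanobodies from a synthetic yeast display library (Saccharomyces cerevisiae BJ5465), induced 36–48 hours with galactose, were stained 1 hour at 4 °C with 10% biotinylated, detergent-solubilized Sf9 membrane reagent, enriched on streptavidin microbeads, then FACS-sorted. Anti-HA (expression) and streptavidin (reagent binding) fluorescence set low and high (top ~1%) gates. Polyreactivity labels come from the gate of origin. Genes were colony-PCR amplified, MiSeq 2 × 250 sequenced and filtered by CDR length.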

Sequence | polyreactivity (PSR sort gate)
QVQLVESWGGLVQAGGSLRLSCAASGSTISDNAMGWYRQAPGKERELVATIDDDGSTYYADSVKGRFTISRDNAKKTVYLQMNSLKPEDTAVYYCAAEWYGGYPFGYWGQGTQVTVSS | low polyreactivity
QVQLVESWGGLVQAGGSLRLSCAASGYTFSYYAMGWYRPAPWKERELVAAITSTGSTYYADSVKVRFTISRDNAKNTVYLQMNSLKPEDTAVYYCNVDDATVGPVDYWGQGTQVTVSS | low polyreactivity
QVQLVESWGGLVQAGGSLRLSCAATGVTFKFYAMGWYRQAPGKERELVAAISWSGTSTYYADSVKGRFTISRDNAKNTVYLQMNSLKPEDTAVYYCAADKRLRGHGYDYWGQGTQVTVSS | high polyreactivity
QVQLVESWGGLVQAGGSLRLSCDASGSIFVSNAMGWYRQAPGKERELVAAISRGGVNTNYADSVKGRFTISRDNAKNTVYLQMNSLKQEDTAVYYCAAKWSHVRDGPKYDYCGQGTQVTVSS | low polyreactivity
QVQLVESWGGLVQAGGSLRLSCDDSGFTIRVYAMGWYRQAPGKERELVAAISVRGDSTYYADSVKGRFTISRDNAKNTVYLQMNSLKPEDTAVYYCNAVIAPYRRYDYWGQGTQVTVSS | high polyreactivity
QVQLVESWGGLVQAGGSLRLSSAASGLTFWYYAMGCNRQAPGKESELVAAITSVGSSYYADSVKGRFTISRDNAKQTVYLQMNSLKPEDTAVYYCAAGVPPLYFRRGGDYWGQGTQVTVSS | high polyreactivity
QVQLVESWGGLVQARGRLRLSFAASGSTYQNAMRCYRQAPGKEREFVAAISWSGGSTYYGDSVKGRFTISRDNAKNTVYLQMNSLKPEDTAVYYCAAYSYFSPWYDYWGQGTQVTVSS | high polyreactivity
QVQLVESWGGVVQAGGSLRISCAASGFILARYAMGWYRQAPGKERELVAAIRRSGGGTYYADSVKGRFTISRDNAKYTVYLLMKSLKPEDTAVYYCNRDPTYLAYYINYDSWGQGTQVTVSS | high polyreactivity
QVQLVESWRGLVQEGGSLRLSCAASGRTFYSYAMGWYIQAPGKERELVAAITRRGTSTYYADSVKGRFTISRDNAKNTVYLQMNSLKPEDTAVYYCAARLPGTFSYGYWGQGTQVTVSS | high polyreactivity
QVQLVETAGGLVQAGGSLRLSCAASGRIFYGYTLGWYRPAPGKERELVAAISRGGSTYYADSVKGRFTISRDNAKNTVYLQMNSLKPEDPAVYYCAKTYRRRYYPYFHFRYYWGQGTQVTVSS | high polyreactivity
QVQLVETAGGLVQAGGTLRLSCPASGFTIFDNAMGWSRHPPGQERELVAVITKRGGSTYYADSVKGRFTISRYNAKNTVYLQMNILKPEDTAVYYCAADSRFSNFGVTQVTSDYWGQGTQVTVSS | low polyreactivity
QVQLVETGACLVQAGGSLRLSCAASGLTFFGYTMGRYRQAHGKEREFVADITWSGGSTYYADSVKGRFTISRDNAKNTVYLQMNSLKPEDTAVYYCAVAPPNWDPFVDDTYLMDYWGQGTQVTVSS | low polyreactivity
QVQLVETGAGLVQAGGRLRLSCDSSGSTFYVYYMGWYRQSPGKERELVAAISSGAGSTYYADSVKGRFTISRDNAKNTVYLQMNSLTRKIPRSSTALLFTVNGGGSRSHDYWAQGTQVTVSS | low polyreactivity
QVQLVETGGGLFQAGGTLLLSCAASGRIFIRNALVWYRQAPGKEWELVAAIRTRDASTYYADSVKGRFTISRDIAKNTVYLLMNSLKPVDTAVYYCNADTTWPSSSGPTTFGQGDYWGQGTQVTVSS | low polyreactivity
QVQLVETGGGLVHAGGSLRLSCAASGSTISLYARGWYRQAPVKERELVASITWGGGSTYADSVKGRFTISRDNAKNTVYLQLNRLKPEDTAVYYCARKYRYRVLYDFAYDHWGQGTQVTVSS | low polyreactivity
QVQLVETGGGLVQAAGSLRLSTAASGSTYWCNTMGWYRQAPGKERELVADIRTSGGGTYYADSVKGRFTISRDNAKNTVYLQMNRLKPEDTAVYYCNAVPNWEMGSWGLGTQVTVSS | low polyreactivity

Sequence | polyreactivity (PSR sort gate)
QVQLVETGGGLVQAGGILRLSCAASGLTIIYYAMGWYRQSPGKERELVAAISGSVGSTYYADSVQGRFTISRDNAKNTVYLQMNSLKPEDTAVYYCNADRWGFGNVRKYDYWGQGTQVTVSS | low polyreactivity
QVQLVETGGGLVQAGGSHRLSCAASGFTFWYNAMGWYRPAPGKERELVAAIDWRGSSTYYADSVNGRFTISRDNAKNTVYLQMNSLKPEDTAVYYCAADFGDRYVYWAQGTQVTVSS | high polyreactivity
QVQLVETGGGLVQAGGSLGLSCDASGRIFDYYSMGWYRQATGKERELVASITRGGITYYADSVKGRFTISRDNAKNTVYLQMNSLKPEDTAVYYCADGLRWRRTYGYWGQGTQVTVSS | high polyreactivity
QVQLVETGGGLVQAGGSLLLSCAASGNTFQYYAMGCYRQAPGKERELVAAITTGGSTNYADSVKGRFTISRDNAKNTVYLQMNSLKPEDTAVYYCAARGCVSKRISDYWGQGTQVTVSS | low polyreactivity
QVQLVETGGGLVQAGGSLRLSCAASARTFVPYAMGWYRPAPGKERELVADITDGDVSTYADSVNGRFTISRDKAKNTVYLQMNSLKPDDNAVYYCAAQYRRLVTRWPVTFGYWGQGTQVTVSS | low polyreactivity
QVQLVETGGGLVQAGGSLRLSCAASGFIFSAYAMGWYRQAPGKEREFVAAISKRGGSTYYADSVKGRFTISRENAKNTVYLQMNTLKPDDTAVYYCAAPYSRYLVGYGYWGQGTQVTVSS | high polyreactivity
QVQLVETGGGLVQAGGSLRLSCAASGFIFSYNAMGWYRQAPGKERELVASISRADSTNYADSVKGRFTISRDNAKNTVYLQMNSLKPEDTAVYYCAKKGRTARRLYSFDYWGQGTQVTVSS | low polyreactivity
QVQLVETGGGLVQAGGSLRLSCAASGFIFYDYAMGWYRQSPGKERELVASISWSSGSTYYADSVKGRFTISRDNAKNTVYLQMNSLKPEDTAVYYCAADGYPLQLYNYWGQGTQVSVSS | low polyreactivity
QVQLVETGGGLVQAGGSLRLSCAASGFIVAEYAMGWYIQAPGKERELVAAITRSGGRTYYADSVKGRFTISRDNAKNTVYLQMNSLKPEDTAVYYCAAGLGYPRLYYWGQGTQVTVSS | high polyreactivity
QVQLVETGGGLVQAGGSLRLSCAASGFTCYRNAIGWYRQAPRKDREIVAAITSDGITYYADSVKGRFTMSRDNAKNTVYLQMNSLKPEDTAVYYCAADVQADLYSYEYDYWGQGTQVTVSS | low polyreactivity
QVQLVETGGGLVQAGGSLRLSCAASGFTFKFNTMGWYRQAPGKERELVAAISWRGGDTSYADSVKGRFTISRDNAKNTVYLQMNSLKPEDTAVYYCAASPRYPYWYDYWGQGTQVTVSS | low polyreactivity
QVQLVETGGGLVQAGGSLRLSCAASGFTFSYYAMGWYRQAPGKERELVAAISWSGGSTYYADSVKGRFTISRDNAKNTVYLLMNSLKPEDTAVYYSNKVGRAIGPYDYWGQGTQVTVSS | high polyreactivity
QVQLVETGGGLVQAGGSLRLSCAASGIFTYTMGWYRQAPRKERELVAAITNGSTYDADSVKGRFTISRDNAKNTVYLQMNSLKPEDTEVYYCAADRSSAYRWRSAGYYKYDYWGQGTHVTVSS | low polyreactivity
QVQLVETGGGLVQAGGSLRLSCAASGIIFDVYAMGWYRPAPGKERELVAAISYGGGTTYYADSVKGRFTISRDNAKNTVYLQMNSLKPEDTAVYYCAADSYRSIGDDYWGQGTQVTVSS | high polyreactivity
QVQLVETGGGLVQAGGSLRLSCAASGIIIPWYTMGWYRQAPGKERELVAAISSGGRTNYADSVKGRFTISRDNAKNTVYLQMNSLIPEDTAVYYCAANYYRDRDWGQGTQVTVSS | high polyreactivity
QVQLVETGGGLVQAGGSLRLSCAASGITFASYAMGWYRHAPGKEREFVATITTGGTNTYYADSVKGRFTLSRDNAKKTVYLQMNSQKPEDTAVYYCAADSTPYVLSGNYDYWGQGTQVTVSS | low polyreactivity
